Some results are limits rather than exact numbers.

This series has as its system Saccharomyces cerevisiae. Put plainly: transcriptional activation domain activity (GFP:mCherry ratio, weighted mean of sorted bins, harmonized to initial dataset scale) (arbitrary fluorescence ratio units); higher = stronger transcriptional activation. The settings on record: beta-estradiol 1 µM; induction time 4 h. Summed up:
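Activation activity, the read-weighted mean of bin median fluorescence averaged across barcodes, was linearly mapped onto the scale of the initial dataset. It was measured for barcoded protein tiles fused to an estradiol-inducible synthetic transcription factor at URA3 in GFP-reporter yeast diploids. Cultures diluted 1:5 into SC with 1 uM beta-estradiol were held 4 hours at 30 °C, sorted into 8 bins by GFP:mCherry ratio, and barcode-sequenced, and tiles under 50 reads were discarded.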

For “PLEYFDIKALSALIVFDEFPNYIIGLLLQSYPELVHGTFMPYIECMLFTMNPL”, the “transcriptional activation domain activity” value was determined as 61800.

In the case of “IMGNLVVLLWHTKVDNIESYLADLSRCIEDFLNVTAQCAPSILILKPKFHFLL”, the “transcriptional activation domain activity” value amounted to 56300.

As for “ADIICMIYLIVNYTLLVFVSEVPYHQRARICLRLFCSCNFVTNFYATSAIVYR”, the “transcriptional activation domain activity” value is 51100.

Consider “DDAVVESFFSSSTDSTPMFEYENLEDNSKEWTSLFDNDIPVTTDDVSLADKAI”, for which the “transcriptional activation domain activity” value is 114000.

For “LLKLKMATKTNDIALYEHFIDMSLRFLPFWNMIVSYYLCLLLLFNTTHIIFIL”, the “transcriptional activation domain activity” value came to 90500.

As for “LLLFLFLRICFGLHVLATSAWFFYPSFLYGLSLITLPLFYGGVDPSVPWLFDG”, the “transcriptional activation domain activity” value came to 48900.

For the sequence “VCGAHCGYILGHINIFQPINWVLVQSSKVFPIDYVLFLLLVLFFFSASVVGLA”, the “transcriptional activation domain activity” value was 21400.

With “CSNIAEQADQCDFVKSYCDGFSGYYLMLYYCSPFWRPISIFILLSCLLMLFGA”, the “transcriptional activation domain activity” value amounted to 30700.

For “NSIIPFFRFLGCIVLSGAFYFYIFFYAFLLCLFLIYFFFHGSKLGFFHFIFFP”, the “transcriptional activation domain activity” value turned out to be 40600.

For “LILNCYWIVLVAFTFNMEVEYCKIVSVVGKLSSKFLGRVQVFLLLFMLMLFLV”, the “transcriptional activation domain activity” value came to 50600.

For “EAARKETDAEGVRKTKVKKSRKRKAPEDGLEADEEGAARRTARARKTPAEAEA”, the “transcriptional activation domain activity” value amounted to 28700.

As for “TPECLTKINWNVLRLSSYLSSVATSHFLELSTIIGITLIQLIWLLHPPCLLFL”, the “transcriptional activation domain activity” value turned out to be 45400.

Consider “DGAGAKDDEEDAGRMRTRGNGKRKGKGRAQDEAEAEAERVRAAEAFARRGAAK”, for which the “transcriptional activation domain activity” value turned out to be 43300.

As to “MRIAIYWRSFSVSTSFFFLPGYSFFLSNWVLFLVYFYDTGCGVCFLPFIMIFF”, the “transcriptional activation domain activity” value was 72700.

Take “MTWFGILPPFSWPWIYPRSFGMCGNLSTTLFLHVLIALFFFFCLFFHLCLLWL”: the “transcriptional activation domain activity” value amounted to 50200.

Regarding “IRCAKGFKSTDETKIFKTGQGGMKGNMYVTLSWNRWGKLLWATRIITRDFNPV”, the “transcriptional activation domain activity” value stood at 46000.

Regarding “LYLCLVILFKRCIIGGFKAGPRRHDQVTLMRYWFMEKLLPPGENLQGVASILG”, the “transcriptional activation domain activity” value came to 16200.

In the case of “TLHVCFVEMRLADVVVDFLSRCSATINLAFFDTRLWHPNLLPILGALPLQRLS”, the “transcriptional activation domain activity” value is 87200.

As to “MDSQDAGRVSSQGQAVKEKQRSRTGCRTCKSRKVKCDETRGGCRNCERLNLPC”, the “transcriptional activation domain activity” value was determined as 14700.

As to “MFMTELLWGPGVRRLFLVFLFFISFPSLIPFFLSCLSFCTLLISLLCSFGTCA”, the “transcriptional activation domain activity” value turned out to be 38500.

Take “SDASAGAEAGTDGSAAPPKKKPRQKRAAPLPGEEGYDAAASKPKRAPRKRKAS”: the “transcriptional activation domain activity” value came out at 25300.

Consider “EYVSLCRTFATREMLKVAIFANIFSKMTRTLACLFVTRISSHVNRLRALLQPI”, for which the “transcriptional activation domain activity” value worked out at 61700.

“DIPGLAPTYLDNQAFLMADTVDIPGDYNLFFDNFDISNFFLPATVYDSELPVS”: the “transcriptional activation domain activity” value is 137000.

As for “AVPAEGAKPEETPAAAPAETTEAAKTEESKPEAPAASEPAKTEPAAPAAAPAA”, the “transcriptional activation domain activity” value was under 6570.

Take “AITRLSLVIDALKEGMRYDCDHVLETYQYDVLLVAGYFYLAAILDKSGVDPTA”: the “transcriptional activation domain activity” value turned out to be 52000.

For “FCVAAMIGEYGTTYYPTVTYWGELEVLGKIFWTLPLESFANSISGIIVDCYLI”, the “transcriptional activation domain activity” value is 63500.

With “MEVRQRKPGSGRPKGSKNKAKPPGTEPRPRKPGSGRPKGSKNKTTLAAAAAAA”, the “transcriptional activation domain activity” value was 30900.

Take “MVLIFFLYWLWFMWGLYLFFFSFFSRAKYWLLVLVVFFFGWGFYIVWSFSLHD”: the “transcriptional activation domain activity” value amounted to 57500.

For the sequence “CSCSAGTRTSSSASSSAWRGASSSSSSRCSATRSSIARSRRTRSSCCARTRTC”, the “transcriptional activation domain activity” value worked out at 36200.

For the sequence “TRQYIINILFGIMTVENFDLEDIIYFYMFIARNLPKYPQHIMLPGTSLHQVLV”, the “transcriptional activation domain activity” value was 54100.

Take “PEPVSEEPKAESSRTATAPPSLARRAASYFVSSFRGRTLHGTKIDVPDGYTGL”: the “transcriptional activation domain activity” value came out at 49000.

Regarding “MTGTTLLPPPFISNDVTNSADSTNIKPSPSSSVDNLNDYLTDINSLAWGVNSL”, the “transcriptional activation domain activity” value came to 67600.

Consider “HLSLSPSLIPTLSFFLLLLYPLVFFIFIIYRGPLFFLFDLTHLICFIYILFIL”, for which the “transcriptional activation domain activity” value was found to be 27400.

For the sequence “PNWESLFGLMDFVRIRAEKLQWHLFLSLIRFMEAMIVRYMANYDRRTLHNSTE”, the “transcriptional activation domain activity” value is 44300.

With “SQSRSRSASRSRSPPRKREKRDSSDREDSRDRRRNKSESRSRSRSPAKSAGSA”, the “transcriptional activation domain activity” value stood at 16300.

In the case of “LAEEEGEEEEGESVTPTDDKIIVKLRGKDNTDTSLRVKQTTLIRSVISSYKKI”, the “transcriptional activation domain activity” value was determined as 64100.

For “MGVICIFICFAVGLSTIITNLLSWLLLFSIICLICAPIILFVEVPFLLRICPT”, the “transcriptional activation domain activity” value came out at 61400.

As to “SFKPAPAPAAEEAPKTEETPAPAETEAAAEEAKPAEEPKKEEVKEEPKRRSAS”, the “transcriptional activation domain activity” value was 35500.

In the case of “VLMDERISLKNDLSSQDVALFLSLASSVASGSLLLRPPNVWIVVWTYLHRRHG”, the “transcriptional activation domain activity” value amounted to 66900.

Take “IQAEGLYDCRYSSYGIELLRYAFYFGMFLFLLRSGWYITSSVFLGTLWHQLSF”: the “transcriptional activation domain activity” value was 21100.

For “KIHLVNISQVVVFFVYRFLYGLIPLFEIATCAYYPLLVSLWHLDYLLFYAVMF”, the “transcriptional activation domain activity” value was 48100.

Take “GGAAPAAAPADNRPPEERYAEQLRQLNDMGFFDFDRNVAALRRSGGSVQGAIE”: the “transcriptional activation domain activity” value was determined as 44000.

On to “MELFFRLFFWLMSWLLQLTHYFNTFTVLLYIHSLFSGVWFCKVLGFSFFFLYH”, for which the “transcriptional activation domain activity” value was determined as 51600.

As to “MYLWVLLQKVGLLLLLLLLLLLLLLLLLLHWLLHLLLLLLLLLLLLYQVCLQW”, the “transcriptional activation domain activity” value turned out to be 23400.

For the sequence “RGRLPCRYTIWIYSLTRVACLLGVIVCTVGMDVSTSYNCQLWVSSVATLFCVT”, the “transcriptional activation domain activity” value was 70300.

For “GFVDVTEQVCGWPMGPWSDDEKLKELGRWNLRNWEEGMEGWILMLYTRFLGWS”, the “transcriptional activation domain activity” value was found to be 69700.

For the sequence “RLFGRGQWTLGRVIFFVFFYFNVAPLMLGVSMVCWFMVFWIPMGRVTLILFYH”, the “transcriptional activation domain activity” value was 85300.

Turning to “MYHIPWPQVLWVGYQLRPTQIMGIFCSHLSVVLLVLPTPYYFLFHVLFLLWAS”, the “transcriptional activation domain activity” value worked out at 48900.

With “KDQIMYYIHLVIMISTIIQALVQHMIVVNTLPTYFCHPINVFSNFFWHVQFTL”, the “transcriptional activation domain activity” value was 39300.

On to “RGGGRKKKEADGEDGETTPKKTPRKRAAKEAEDGDASPKKKGRPAKAKPRQEP”, for which the “transcriptional activation domain activity” value was 17900.

“FIHLMNMTQVVVLCIHRFVYGLVPLFEITTCAFWPLLVSLWHLTYLLFYAIMF”: the “transcriptional activation domain activity” value is 64100.

Turning to “TVQLLKLFCAFSSLSSILIALLLQTPYYLATTWGTLLRRYIIFFSFPLINSIS”, the “transcriptional activation domain activity” value came to 54200.

As for “NWYFLGTTMYFLYGESVIYYFKHIVLVDKVLLPFATHHRFISFMLYVIGFVFF”, the “transcriptional activation domain activity” value is 59100.

For the sequence “WKPDIYTCVMRMLLDRLHSALGSLHARSIIRKIRILVALAGNVAYRGYPLQMT”, the “transcriptional activation domain activity” value came to 48900.

On to “FLDCLKYILHNSHHLLVTVCDSFERTVRGLNKLKKMNVRQKDIYIGYYLLQYG”, for which the “transcriptional activation domain activity” value was 46200.

The values above are taken from the supplement of paper PMC12636428.
